# Values quoted from earlier work, collected in patent US7338947B2, “Cyclic derivatives as modulators of chemokine receptor activity” (Bristol-Myers Squibb Co., priority 2003, dated 2008).
# Test system: MCP-1 expression in peripheral blood mononuclear cells
# Conditions: human multiple sclerosis, effective therapy
molecule,measurement,value
"interferon b-1b: interferon b-1b, effective therapy in human multiple sclerosis (protein, UniProt P01574 22-187, looked up, variant C17S, interferon beta-1b) Interferon beta: MSYNLLGFLQRSSNFQSQKLLWQLNGRLEYCLKDRMNFDIPEEIKQLQQFQKEDAALTIYEMLQNIFAIFRQDSSSTGWNETIVENLLANVYHQINHLKTVLEEKLEKEDFTRGKLMSSLHLKRYYGRILHYLKAKEYSHCAWTIVRVEILRNFYFINRLTGYLRN",MCP-1 expression in peripheral blood mononuclear cells,reduces MCP-1 expression
